Laboratory results: US20250326840A1 (QURE BIOTECHNOLOGY SHANGHAI, published 2025)

T1: QP098 (cyno SIRPα (I7G9Z7) ECD(E31-R369)-flag-his) (cynomolgus)
T1 construct: the construct carries flag and his tags; also called cynoSIRPα (ECD); cynomolgus SIRPα
T1 chain: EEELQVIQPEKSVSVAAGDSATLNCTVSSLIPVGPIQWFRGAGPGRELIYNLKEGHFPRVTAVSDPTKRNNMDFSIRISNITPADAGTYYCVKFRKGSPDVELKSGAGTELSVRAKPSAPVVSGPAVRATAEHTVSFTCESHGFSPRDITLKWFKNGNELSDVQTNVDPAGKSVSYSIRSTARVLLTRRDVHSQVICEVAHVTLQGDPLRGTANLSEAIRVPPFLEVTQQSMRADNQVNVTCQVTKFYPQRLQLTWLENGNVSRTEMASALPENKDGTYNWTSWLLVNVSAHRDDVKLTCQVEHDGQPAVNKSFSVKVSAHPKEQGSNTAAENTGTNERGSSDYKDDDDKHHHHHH

T2: QP273 (cynoSIRPα2-flag-his T-557-14) (cynomolgus)
T2 construct: also called cynomolgus SIRPα (QP273)
T2 chain: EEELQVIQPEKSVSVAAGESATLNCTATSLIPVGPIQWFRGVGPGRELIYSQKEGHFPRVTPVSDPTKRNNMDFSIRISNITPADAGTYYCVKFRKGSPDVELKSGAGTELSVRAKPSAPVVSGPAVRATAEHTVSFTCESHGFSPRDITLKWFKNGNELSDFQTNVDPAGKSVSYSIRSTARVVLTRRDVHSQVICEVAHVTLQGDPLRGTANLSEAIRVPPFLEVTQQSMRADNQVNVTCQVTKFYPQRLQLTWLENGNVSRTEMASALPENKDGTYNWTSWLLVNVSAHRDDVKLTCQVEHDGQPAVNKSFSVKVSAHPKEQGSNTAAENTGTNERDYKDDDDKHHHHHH

T3: QP271 (rhesus SIRPα1-flag-his T-557-28) (rhesus monkey)
T3 construct: also called rhesus monkey SIRPα (QP271); monkeySIRPα1-flag-his
T3 chain: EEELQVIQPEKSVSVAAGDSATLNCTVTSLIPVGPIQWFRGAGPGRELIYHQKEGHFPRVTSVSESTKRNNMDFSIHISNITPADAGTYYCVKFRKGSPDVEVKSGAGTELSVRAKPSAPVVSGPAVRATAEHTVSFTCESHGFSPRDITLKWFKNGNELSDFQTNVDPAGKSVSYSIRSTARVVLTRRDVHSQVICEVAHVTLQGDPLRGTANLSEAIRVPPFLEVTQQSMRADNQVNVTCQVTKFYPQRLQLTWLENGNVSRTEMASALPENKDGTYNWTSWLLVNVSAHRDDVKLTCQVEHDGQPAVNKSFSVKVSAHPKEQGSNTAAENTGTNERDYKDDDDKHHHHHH

T4: QP100 (cyno SIRPα (G7PGS8) ECD(E29-R368)-flag-his) (cynomolgus)
T4 construct: the construct carries flag and his tags; also called cynoSIRPα-flag-his; Cynomolgus SIRPα (QP100)
T4 chain: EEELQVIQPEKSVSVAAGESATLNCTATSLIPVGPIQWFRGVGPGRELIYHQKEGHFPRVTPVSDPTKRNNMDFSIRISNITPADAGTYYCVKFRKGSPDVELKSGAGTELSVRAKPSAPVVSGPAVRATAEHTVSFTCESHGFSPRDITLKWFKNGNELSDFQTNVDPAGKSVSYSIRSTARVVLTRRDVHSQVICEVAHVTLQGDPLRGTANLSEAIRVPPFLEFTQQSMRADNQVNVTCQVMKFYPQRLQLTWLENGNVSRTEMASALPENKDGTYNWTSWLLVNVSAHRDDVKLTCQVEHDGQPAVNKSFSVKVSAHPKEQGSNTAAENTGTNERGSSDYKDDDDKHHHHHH


Columns and labels:
[1] = target: T1, QP098 (cyno SIRPα (I7G9Z7) …); assay: binding ELISA, antigen coated
[2] = target: T2, QP273 (cynoSIRPα2-flag-his T-557-14); assay: binding ELISA, antigen coated
[3] = target: T3, QP271 (rhesus SIRPα1-flag-his T-557-28); assay: binding ELISA, antigen coated
QP096 (human SIRPα V2 …) [4] = target: T5, QP096 (human SIRPα V2 ECD(E31-R370)-flag-his) (human); assay: binding ELISA, antigen coated
T5 construct: the construct carries flag and his tags; also called SIRPαV2-Flag-his; Human SIRPα V2 (QP096)

QP094 (human SIRPα V1 …) [5] = target: T6, QP094 (human SIRPα V1 ECD(E31-R370)-flag-his) (human, UniProt P78324 31-370); assay: binding ELISA, antigen coated
T6 construct: the construct carries flag and his tags; also called SIRPαV1-flag-his; SIRPαV1-his (QP094)

[6] = target: T4, QP100 (cyno SIRPα (G7PGS8) …); assay: binding ELISA, antigen coated
QP002 [7] = target: T7, QP002 (biotinylated in the blocking assays, sites not given); assay: blocking ELISA: QP001.2 (CD47) coated, biotin-QP002 (SIRPα-FC) mixed with the antibody, HRP-streptavidin; blocked ligand: CD47; unit from the x axis Log[Conc.(ug/ml)]
T7 construct: also called SIRPα-FC; Biotin-QP002

[8] = target: T1, QP098 (cyno SIRPα (I7G9Z7) …); assay: SPR, Biacore
[9] = target: T2, QP273 (cynoSIRPα2-flag-his T-557-14); assay: SPR, Biacore
[10] = target: T3, QP271 (rhesus SIRPα1-flag-his T-557-28); assay: SPR, Biacore
QP096 (human SIRPα V2 …) [11] = target: T5, QP096 (human SIRPα V2 …); assay: SPR, Biacore
QP094 (human SIRPα V1 …) [12] = target: T6, QP094 (human SIRPα V1 …); assay: SPR, Biacore
QP002 [13] = target: T7, QP002; assay: blocking ELISA: QP001.2 (CD47) coated, biotin-QP002 (SIRPα-FC) mixed with the antibody, HRP-streptavidin; blocked ligand: CD47
QP003 (PDL1-his) = assay: ELISA, QP003 (PDL1-his) captured on coated anti-his, anti-hFc detection; unit from the x axis Log(Conc.(nM))
Chain of QP003 (PDL1-his) (chain, as listed by the source limits assumed): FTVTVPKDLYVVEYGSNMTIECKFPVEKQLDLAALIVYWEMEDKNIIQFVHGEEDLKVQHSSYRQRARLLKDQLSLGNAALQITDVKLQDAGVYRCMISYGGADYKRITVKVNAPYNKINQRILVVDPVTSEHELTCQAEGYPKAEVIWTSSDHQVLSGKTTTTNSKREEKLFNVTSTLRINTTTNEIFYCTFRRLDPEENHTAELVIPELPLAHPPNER

T7 sequence (SIRPα-Fc fusion chain, as listed by the source): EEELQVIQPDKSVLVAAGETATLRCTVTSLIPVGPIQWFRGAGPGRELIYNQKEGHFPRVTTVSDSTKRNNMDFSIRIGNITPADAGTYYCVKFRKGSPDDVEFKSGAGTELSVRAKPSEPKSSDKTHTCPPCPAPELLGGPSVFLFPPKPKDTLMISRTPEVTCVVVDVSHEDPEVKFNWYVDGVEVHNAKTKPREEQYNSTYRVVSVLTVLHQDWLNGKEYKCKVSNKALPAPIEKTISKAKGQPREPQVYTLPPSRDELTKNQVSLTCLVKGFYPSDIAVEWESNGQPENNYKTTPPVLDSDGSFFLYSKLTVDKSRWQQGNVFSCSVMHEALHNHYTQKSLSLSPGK
T5 sequence (chain, as listed by the source limits assumed): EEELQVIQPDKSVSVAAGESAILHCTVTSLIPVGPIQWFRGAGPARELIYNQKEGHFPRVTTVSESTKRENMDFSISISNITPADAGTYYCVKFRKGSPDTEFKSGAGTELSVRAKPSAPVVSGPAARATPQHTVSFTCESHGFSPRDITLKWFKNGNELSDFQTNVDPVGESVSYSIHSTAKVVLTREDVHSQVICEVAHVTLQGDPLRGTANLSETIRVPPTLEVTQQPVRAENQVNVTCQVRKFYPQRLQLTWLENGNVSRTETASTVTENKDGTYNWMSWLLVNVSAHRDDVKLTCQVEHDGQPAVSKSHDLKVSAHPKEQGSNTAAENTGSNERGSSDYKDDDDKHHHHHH
T6 sequence (P78324 other isoform, or with tags, fused parts or gaps limits assumed): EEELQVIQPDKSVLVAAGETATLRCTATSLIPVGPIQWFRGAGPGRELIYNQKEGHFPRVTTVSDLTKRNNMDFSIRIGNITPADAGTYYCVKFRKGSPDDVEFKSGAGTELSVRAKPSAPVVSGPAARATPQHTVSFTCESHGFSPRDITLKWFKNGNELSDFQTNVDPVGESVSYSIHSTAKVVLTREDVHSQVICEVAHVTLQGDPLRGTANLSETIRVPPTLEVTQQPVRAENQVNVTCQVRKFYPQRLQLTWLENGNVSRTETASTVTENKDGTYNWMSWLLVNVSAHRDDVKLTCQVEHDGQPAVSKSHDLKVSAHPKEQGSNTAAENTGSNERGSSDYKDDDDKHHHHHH

EC50 [1] [ng/mL]	EC50 [2] [ng/mL]	EC50 [3] [ng/mL]	EC50 (QP096 (human SIRPα V2 …) [4]) [ng/mL]	EC50 (QP094 (human SIRPα V1 …) [5]) [ng/mL]	EC50 [6] [ng/mL]	IC50 (QP002 [7]) [ng/mL]	Kd [8] [nM]	Kd [9] [nM]	Kd [10] [nM]	Kd (QP096 (human SIRPα V2 …) [11]) [nM]	Kd (QP094 (human SIRPα V1 …) [12]) [nM]	IC50 (read off the curve) (QP002 [13]) [ng/mL]	EC50 (QP003 (PDL1-his)) [nM]	Binder
1.13	2.35	0.807	1.05	1.12	0.983							~20		QP2561594 (antibody, human IgG4, V domains shown, Human IgG4 heavy constant region and kappa CL) VH: QVQLVQSGAEVKKPGASVKVSCKASGYTFTNYWINWVRQAPGQGLEWIAMIDPSDSETHYNQIFKDRATLTTDTSTSTAYMELRSLRSDDTAVYYCAMDYGSLYAMDYWGRGTLVTVSS VL: DIVLTQSPDSLAVSLGERATINCRASKSVSSSGYNYIFWYQQKPGQPPKLLIYLASNLDSGVPDRFSGSGSGTDFTLTISSLQAEDVAVYYCQHSRDLPTFGQGTKLEIK
													0.0205	QP32700623 (bispecific antibody, human IgG1, kappa, L234A L235A, Anti-PD-L1 VHH-G4S fused to the N-terminus of the light chain) heavy: not shown light: EVQLLESGGGLVQPGGSLRLSCAASGFTLDDYAIGWFRQAPGKGREGVSCISKSGETTFFVESVKDRFTISRDNSKNTLYLQMNSLRAEDTAVYYCATGSWCTVGSMSRQFYRQFFHSWGQGTLVTVSSGGGGSDIVLTQSPDSLAVSLGERATINCRASQSVRSSGYNWIFWYQQKPGQPPKLLIYLASNRDSGVPDRFSGSGSGTDFTLTISSLQAEDVAVYYCQHSRELPTFGQGTKLEIKRTVAAPSVFIFPPSDEQLKSGTASVVCLLNNFYPREAKVQWKVDNALQSGNSQESVTEQDSKDSTYSLSSTLTLSKADYEKHKVYACEVTHQGLSSPVTKSFNRGEC
													0.0176	QP06260279 (bispecific antibody, human IgG1, kappa, L234A L235A, Anti-PD-L1 VHH-G4S fused to the N-terminus of the heavy chain) heavy: not shown light: DIVLTQSPDSLAVSLGERATINCRASQSVRSSGYNWIFWYQQKPGQPPKLLIYLASNRDSGVPDRFSGSGSGTDFTLTISSLQAEDVAVYYCQHSRELPTFGQGTKLEIKRTVAAPSVFIFPPSDEQLKSGTASVVCLLNNFYPREAKVQWKVDNALQSGNSQESVTEQDSKDSTYSLSSTLTLSKADYEKHKVYACEVTHQGLSSPVTKSFNRGEC
													0.0215	QP06280279 (bispecific antibody, human IgG1, kappa, L234A L235A, Anti-PD-L1 VHH-(G4S)3 fused to the N-terminus of the heavy chain) heavy: not shown light: DIVLTQSPDSLAVSLGERATINCRASQSVRSSGYNWIFWYQQKPGQPPKLLIYLASNRDSGVPDRFSGSGSGTDFTLTISSLQAEDVAVYYCQHSRELPTFGQGTKLEIKRTVAAPSVFIFPPSDEQLKSGTASVVCLLNNFYPREAKVQWKVDNALQSGNSQESVTEQDSKDSTYSLSSTLTLSKADYEKHKVYACEVTHQGLSSPVTKSFNRGEC

Continued, binder first:

Binder	EC50 [1] [ng/mL]	EC50 [2] [ng/mL]	EC50 [3] [ng/mL]	EC50 (QP096 (human SIRPα V2 …) [4]) [ng/mL]	EC50 (QP094 (human SIRPα V1 …) [5]) [ng/mL]	EC50 [6] [ng/mL]	IC50 (QP002 [7]) [ng/mL]	Kd [8] [nM]	Kd [9] [nM]	Kd [10] [nM]	Kd (QP096 (human SIRPα V2 …) [11]) [nM]	Kd (QP094 (human SIRPα V1 …) [12]) [nM]	IC50 (read off the curve) (QP002 [13]) [ng/mL]	EC50 (QP003 (PDL1-his)) [nM]
QP256291 (antibody, human IgG4, V domains shown, Human IgG4 heavy constant region and kappa CL) VH: QVQLVQSGAEVKKPGASVKVSCKASGYTFTNYWINWVRQAPGQGLEWIAMIDPSDSETHYNQIFKDRATLTTDTSTSTAYMELRSLRSDDTAVYYCAMDYGSLYAMDYWGRGTLVTVSS VL: DIVLTQSPDSLAVSLGERATINCRASKSVGSSGYNWLFWYQQKPGQPPKLLIYLASNRDSGVPDRFSGSGSGTDFTLTISSLQAEDVAVYYCQHSRELPTFGQGTKLEIK	1.57	1.62	1.17	1.43	1.86	1.18	23.4							
QP2561771 (antibody, human IgG4, V domains shown, Human IgG4 heavy constant region and kappa CL) VH: QVQLVQSGAEVKKPGASVKVSCKASGYTFTNYWINWVRQAPGQGLEWIAMIDPSDSETHYNQIFKDRATLTTDTSTSTAYMELRSLRSDDTAVYYCAMDYGSLYAMDYWGRGTLVTVSS VL: DIVLTQSPDSLAVSLGERATINCRASKSVSSSGYNWIFWYQQKPGQPPKLLIYLASNRDSGVPDRFSGSGSGTDFTLTISSLQAEDVAVYYCQESRELPTFGQGTKLEIK	1.08	1.22	1.13	1.13	1.15	1.13	23.3							
QP2561770 (antibody, human IgG4, V domains shown, Human IgG4 heavy constant region and kappa CL) VH: QVQLVQSGAEVKKPGASVKVSCKASGYTFTNYWINWVRQAPGQGLEWIAMIDPSDSETHYNQIFKDRATLTTDTSTSTAYMELRSLRSDDTAVYYCAMDYGSLYAMDYWGRGTLVTVSS VL: DIVLTQSPDSLAVSLGERATINCRASQSVRSSGYNWIFWYQQKPGQPPKLLIYLASNRDSGVPDRFSGSGSGTDFTLTISSLQAEDVAVYYCQESRELPTFGQGTKLEIK	1.3	1.68	1.21	1.36	1.61	1.01	25	0.256	0.163	0.1	0.0368	0.0288		
QP2561581 (antibody, human IgG4, V domains shown, Human IgG4 heavy constant region and kappa CL) VH: QVQLVQSGAEVKKPGASVKVSCKASGYTFTNYWINWVRQAPGQGLEWIAMIDPSDSETHYNQIFKDRATLTTDTSTSTAYMELRSLRSDDTAVYYCAMDYGSLYAMDYWGRGTLVTVSS VL: DIVLTQSPDSLAVSLGERATINCRASKSVSSSGYNYIFWYQQKPGQPPKLLIYLASNLDPGVPDRFSGSGSGTDFTLTISSLQAEDVAVYYCQHSRELPTFGQGTKLEIK	0.918	0.921	0.555	0.862	1.07	0.758					0.176	0.137	~20	
QP06270279 (bispecific antibody, human IgG1, kappa, L234A L235A, Anti-PD-L1 VHH-(G4S)2 fused to the N-terminus of the heavy chain) heavy: not shown light: DIVLTQSPDSLAVSLGERATINCRASQSVRSSGYNWIFWYQQKPGQPPKLLIYLASNRDSGVPDRFSGSGSGTDFTLTISSLQAEDVAVYYCQHSRELPTFGQGTKLEIKRTVAAPSVFIFPPSDEQLKSGTASVVCLLNNFYPREAKVQWKVDNALQSGNSQESVTEQDSKDSTYSLSSTLTLSKADYEKHKVYACEVTHQGLSSPVTKSFNRGEC														0.0198
